Data on one molecule can be found in paper PMC12543323, “IFIT1 is rapidly evolving and exhibits disparate antiviral activities across 11 mammalian orders”.

One data set addresses T1, human IFIT1 (Homo sapiens, UniProt P09914 1-478).
T1 sequence: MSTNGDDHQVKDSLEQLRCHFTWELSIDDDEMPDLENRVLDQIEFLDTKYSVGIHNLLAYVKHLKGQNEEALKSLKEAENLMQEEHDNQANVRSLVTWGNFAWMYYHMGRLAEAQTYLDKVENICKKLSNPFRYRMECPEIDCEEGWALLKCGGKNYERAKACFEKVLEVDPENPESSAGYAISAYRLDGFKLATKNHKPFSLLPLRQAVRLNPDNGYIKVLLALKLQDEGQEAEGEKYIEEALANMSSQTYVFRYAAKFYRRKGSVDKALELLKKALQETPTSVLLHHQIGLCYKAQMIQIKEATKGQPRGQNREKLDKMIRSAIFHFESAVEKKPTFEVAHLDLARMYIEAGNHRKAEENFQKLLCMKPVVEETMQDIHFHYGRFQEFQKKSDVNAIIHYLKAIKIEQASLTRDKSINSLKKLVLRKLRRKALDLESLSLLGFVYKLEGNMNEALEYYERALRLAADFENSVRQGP
The data set is described as follows: EMSA; 50 mM Tris pH 8.0 ([…], room temperature 20 min; […]. The settings on record: protein: recombinant; tags: N-terminal 6xHis-SUMO (smt3) removed by Ulp1; label: none (SYBR Gold post-stain). On the technique in general: Mobility shift assays separate free from complexed probe on a gel.

A further data set concerns the target T2, human IFIT1 R187H (Homo sapiens, UniProt P09914 1-478, R187H).
T2 sequence: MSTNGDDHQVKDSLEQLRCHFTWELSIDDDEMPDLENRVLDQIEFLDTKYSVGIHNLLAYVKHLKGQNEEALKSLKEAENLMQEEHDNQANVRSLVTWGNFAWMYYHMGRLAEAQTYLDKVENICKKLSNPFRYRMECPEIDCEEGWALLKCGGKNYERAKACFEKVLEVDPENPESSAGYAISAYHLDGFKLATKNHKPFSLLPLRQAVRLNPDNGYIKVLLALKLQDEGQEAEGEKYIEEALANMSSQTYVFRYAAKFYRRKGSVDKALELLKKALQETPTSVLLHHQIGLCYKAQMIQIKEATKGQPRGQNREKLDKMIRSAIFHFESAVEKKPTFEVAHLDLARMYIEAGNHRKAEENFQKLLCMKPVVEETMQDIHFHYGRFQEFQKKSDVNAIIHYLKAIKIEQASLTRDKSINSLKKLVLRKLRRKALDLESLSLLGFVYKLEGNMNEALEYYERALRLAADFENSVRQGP
The data set is described as above. As to conditions: protein: recombinant; tags: N-terminal 6xHis-SUMO (smt3) removed by Ulp1; label: none (SYBR Gold post-stain).

B1: Cap0 VEEV TC-83 5' UTR RNA (41 nt) (ssRNA)
RNA: AUAGGCGGCGCAUGAGAGAAGCCCAGACCAAUUACCUACCC
modifications: 5' Cap0 (m7GpppA, no 2'-O methylation; at least 95% by LC/MS)
As to B1, the binding result in the data set with human IFIT1 was “binds”; in the data set with human IFIT1 R187H, “no binding”.
